We go through 1 molecule from article PMC5090066, “An affinity-directed protein missile system for targeted proteolysis” (Open Biology, 2016).

Experiment [1] deals with T1, GFP-VPS34 (endogenous VPS34 with a GFP tag knocked in at the N-terminus) (Aequorea victoria GFP (tag on human …, UniProt P42212 = GFP)).
T1 construct: GFP tag knocked in around the start codon of VPS34; donor construct DU52175; VPS34, class III phosphatidylinositol 3-kinase, human, expressed from its own locus; also called vacuolar protein sorting 34; source: endogenous, homozygous CRISPR/Cas9 knock-in HEK293 cells, in cell extract
The experiment can be described thus: pull-down; aGFP16 tethered to sepharose beads; cell extracts; pull-downs and flow-through extracts analysed. The conditions noted are these: one partner purified.

Experiment [2] addresses T2, PAWS1-GFP (endogenous PAWS1/FAM83G with a GFP tag knocked in at the C-terminus) (Aequorea victoria GFP (tag on human …, UniProt P42212 = GFP)).
T2 construct: PAWS1 (FAM83G), human, expressed from its own locus; GFP tag knocked in around the stop codon of PAWS1; donor construct DU48585; also called protein associated with SMAD1; source: endogenous, homozygous CRISPR/Cas9 knock-in U2OS cells, in cell extract
The description is as above. The conditions noted are these: one partner purified.

B1: aGFP16, cameloid anti-GFP nanobody, tethered to sepharose beads (VHH)
VHH: QVQLVESGGRLVQAGDSLRLSCAASGRTFSTSAMAWFRQAPGREREFVAAITWTVGNTILGDSVKGRFTISRDRAKNTVDLQMDNLEPEDTAVYYCSARSRGYVLSVLRSVDSYDYWGQGTQVTVSG
notes: DU54238 is the cDNA in the pBABED/pRetroX vectors
Consider B1, for which the binding result in experiment [1] and in experiment [2] was “binds” in each case.
